Experimental data published in PMC12456132.

Target: neuraminidase (NA) from A/Brisbane/02/2018 (H1N1), wild type (influenza A virus A/Brisbane/02/2018 (H1N1))
Assay: non-reducing SDS-PAGE

Substance: neuraminidase (NA) from A/Brisbane/02/2018 (H1N1), wild type (natural protein)
- stoichiometry N: 2
